96 substances from the supplement of paper PMC12042874 can be followed below.

± gives the uncertainty stated by the source.

The series can be described thus: amyloid nucleation score (Sup35N fusion, yeast selection) (log enrichment); library NNK3; higher = more nucleation; inactive = no reads after selection. The method in brief:
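After 24 hours of induction with 100 μM copper sulfate, psi-negative yeast expressing peptides of 20 random codons fused to Sup35N were grown for 7 days at 30°C on medium lacking adenine and uracil. Input and output plasmid inserts were sequenced with Illumina, and sequences with under 100 input reads were discarded. Scores for nucleation are the DiMSum log enrichment of output over input reads, centred on the mode score of non-aggregating sequences.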
As for STVNVCYVSMGNWERLTDVR, the amyloid nucleation score is 0.446 ± 0.26.

For the substance STYDRVKNLYVRRSAVVLPS, the amyloid nucleation score entry was “inactive”.

In the case of STYLMSFVLYWLWQRSLDTC, the amyloid nucleation score result is “inactive”.

For SVAGRCVSWNQRGKGLRNAR, the amyloid nucleation score result is “inactive”.

Turning to SVASRTSEGTGYSCIIRVFH, the amyloid nucleation score result is “inactive”.

Take SVDDFR: the amyloid nucleation score entry is “inactive”.

For SVDVTFSVYHY, the amyloid nucleation score is 0.702 ± 0.19.

As for SVERCVIRFCYLQGLYMAAF, the amyloid nucleation score entry was “inactive”.

As for SVERVLLRTVASVGGDVDVN, the amyloid nucleation score result was “inactive”.

As to SVFDKGESGRRYGGEV, the amyloid nucleation score entry was “inactive”.

On to SVFPSLFNACSDLNSVHKVV, for which the amyloid nucleation score entry is “inactive”.

As to SVGKWMYRPSEYGACCASGY, the amyloid nucleation score result is “inactive”.

As for SVIGTSTSFCLHWLWGWALC, the amyloid nucleation score result is “inactive”.

SVLFSLYSSLSYV showed an amyloid nucleation score of 0.548 ± 0.2.

On to SVLLISVEYVAYEFLSHSVR, for which the amyloid nucleation score stood at 2.05 ± 0.097.

In the case of SVNSVHLMRSSEVGTHEGVG, the amyloid nucleation score result is “inactive”.

As to SVPDTLSDFISCPVNCTFLN, the amyloid nucleation score result was “inactive”.

Turning to SVRGIKVNLWRKEDLYASTQ, the amyloid nucleation score result was “inactive”.

Regarding SVSEFSFGSKCIVRRLGI, the amyloid nucleation score entry is “inactive”.

Consider SVSRFKWGFKQAQWDKQRRY, for which the amyloid nucleation score result was “inactive”.

In turn, SVSYFWFARL yielded an amyloid nucleation score of -0.005 ± 0.98.

The substance SVTLGWSTRCCF came in with an amyloid nucleation score of 1.27 ± 0.096.

With SVVLRYVLRYNRSACESRRR, the amyloid nucleation score came to 0.441 ± 0.21.

Take SVWFGEIRNMGLIEEENRDW: the amyloid nucleation score result is “inactive”.

For the substance SVWMGVEPGHYLYQRVLGLV, the amyloid nucleation score entry was “inactive”.

As to SVYDCQLVACHLMRDHKK, the amyloid nucleation score result is “inactive”.

As for SVYGSVFKNRG, the amyloid nucleation score entry is “inactive”.

As to SVYQDCTGGNIPQFGSLAD, the amyloid nucleation score entry is “inactive”.

For the substance SWAVRMAGEYFRNSDMMWCA, the amyloid nucleation score result is “inactive”.

Regarding SWCVDTSIQFPKAFNIVCGF, the amyloid nucleation score result was “inactive”.

Take SWKGGLQTDDGSKGS: the amyloid nucleation score result is “inactive”.

On to SWLNKIAKVIST, for which the amyloid nucleation score entry is “inactive”.

Take SWMSI: the amyloid nucleation score entry is “inactive”.

As for SWRHSCNTRSNDYNIDWE, the amyloid nucleation score entry is “inactive”.

SWRPAICPLLVMKL: the amyloid nucleation score entry was “inactive”.

As to SWSRYNDC, the amyloid nucleation score result was “inactive”.

On to SWVCCF, for which the amyloid nucleation score entry was “inactive”.

Consider SWVFFD, for which the amyloid nucleation score result was “inactive”.

For SWWKDLVYD, the amyloid nucleation score result is “inactive”.

As for SWYDVRSVPKSMVAMMGWRL, the amyloid nucleation score entry is “inactive”.

Consider SWYEYCLINSLRKGSGYKEP, for which the amyloid nucleation score result was “inactive”.

The substance SYCDVFTGNNLHLVVSFFYS registered an amyloid nucleation score of 2.7 ± 0.053.

Substance SYCYSIAMLAMIFLLMQCVI showed an amyloid nucleation score of -0.011 ± 0.43.

On to SYDVNTDFVLCDYSRDTGSQ, for which the amyloid nucleation score entry was “inactive”.

Consider SYGGYQFLYVNSDKLRV, for which the amyloid nucleation score entry is “inactive”.

Take SYGLTHMSKAIGDHRVVIAT: the amyloid nucleation score result was “inactive”.

On to SYILRLSHFITVGLFWAEMQ, for which the amyloid nucleation score entry is “inactive”.

Consider SYLVRCVARNLLCFERVRGS, for which the amyloid nucleation score entry was “inactive”.

Consider SYNCA, for which the amyloid nucleation score entry is “inactive”.

Turning to SYNHEKLK, the amyloid nucleation score entry was “inactive”.

As to SYNKEKVSKTFVGCPTRSMV, the amyloid nucleation score entry was “inactive”.

Take SYNVFPIAEDKNHWNTFC: the amyloid nucleation score entry was “inactive”.

SYSLPMQKRCCIGIGEAGWN registered an amyloid nucleation score of -0.354 ± 0.82.

In turn, SYSNDHAFVSRVAGCNIC came in with an amyloid nucleation score of 1.53 ± 0.1.

Regarding SYSSIVCLGIDYRQAFWCIR, the amyloid nucleation score was determined as 1.8 ± 0.077.

With SYSVIMNHMKRWNPGDTSKW, the amyloid nucleation score entry was “inactive”.

With SYTSFSHSPCTVLMKTWPPK, the amyloid nucleation score entry was “inactive”.

Regarding SYWPVRSELQSVLLNSCGVR, the amyloid nucleation score result was “inactive”.

Take SYYPRIRRLGWECSWTPMLQ: the amyloid nucleation score result is “inactive”.

Turning to SYYSRIRLLRRVRVSYYYVR, the amyloid nucleation score was 0.801 ± 0.22.

Take SYYTISLRMSFTTYFCLKMS: the amyloid nucleation score was 0.665 ± 0.13.

On to TACVFPLMFTTVPGFFFVVE, for which the amyloid nucleation score entry is “inactive”.

With TAFYSRYFWVNLICRRPSFK, the amyloid nucleation score entry is “inactive”.

For TAPFVYLLWRGKCSKAHSRY, the amyloid nucleation score entry is “inactive”.

In the case of TARDESSGV, the amyloid nucleation score entry was “inactive”.

Regarding TAVVKW, the amyloid nucleation score entry was “inactive”.

For the substance TCAPMTITFSCHNNLFKC, the amyloid nucleation score stood at 2.65 ± 0.058.

For TCECCLMMVEFRALCHRWEL, the amyloid nucleation score result was “inactive”.

Regarding TCLEVYGSDMFRTKIRNHDK, the amyloid nucleation score entry is “inactive”.

For the substance TCNNMYCWV, the amyloid nucleation score was found to be 2.3 ± 0.075.

Take TCSYNSGKYNFE: the amyloid nucleation score result was “inactive”.

Regarding TCTLEFLNY, the amyloid nucleation score result was “inactive”.

For the substance TDHAWFWEQS, the amyloid nucleation score entry was “inactive”.

For TDIAPLAGGITSSDNIVRTK, the amyloid nucleation score entry was “inactive”.

The substance TDKRSGVKLNLYFITNTIFA came in with an amyloid nucleation score of 2.17 ± 0.06.

In the case of TDSYICGNMLHKRALKSTSM, the amyloid nucleation score entry was “inactive”.

With TEDHH, the amyloid nucleation score entry is “inactive”.

As to TEESIDVDCVILVTNCHFRC, the amyloid nucleation score was determined as 0.804 ± 0.18.

Take TEQNVSGCEGEGSYGYTRYA: the amyloid nucleation score result was “inactive”.

TETASNSTRYSFL: the amyloid nucleation score entry was “inactive”.

Turning to TFCSTCGDLWGSDFKCGFRV, the amyloid nucleation score entry was “inactive”.

As to TFCVQYESRFRFQESESLHM, the amyloid nucleation score entry was “inactive”.

With TFFIIIGYVLASGGALGLCR, the amyloid nucleation score entry is “inactive”.

Regarding TFFLYVKIRVALNIRVPGVR, the amyloid nucleation score entry was “inactive”.

Turning to TFFVLGCLINLLGMKWTGWV, the amyloid nucleation score entry was “inactive”.

Turning to TFGHWAMYVSCWDRVVCGVD, the amyloid nucleation score entry was “inactive”.

Consider TFLCSENQAAMWGIRTGSLL, for which the amyloid nucleation score entry was “inactive”.

TFLRQGMNSDISYLVRFGGN displayed an amyloid nucleation score of -0.057 ± 0.47.

For the substance TFLWY, the amyloid nucleation score entry is “inactive”.

For the substance TFNSLVCQFIKPLHHLFATL, the amyloid nucleation score entry was “inactive”.

TFNYYACTPIKFVWYLGTCP registered an amyloid nucleation score of 2.54 ± 0.072.

On to TFQDGLLRSDWFIMTLFRRP, for which the amyloid nucleation score result is “inactive”.

For TFQRFQLGHIRFRQVFSWIC, the amyloid nucleation score is -0.627 ± 1.4.

For the substance TFRLAEQQSEFSDLK, the amyloid nucleation score is -0.335 ± 0.71.

With TFSFILRSNLLYENRSVDRA, the amyloid nucleation score turned out to be 1.57 ± 0.077.

Turning to TFSVRLSYLSRNAICDERVL, the amyloid nucleation score stood at 0.33 ± 0.46.
